In patent US20230136228A1:

How the values were obtained:
human CEACAM1 (human) [1] = molecular target: human CEACAM1 (human) (UniProt P13688); test: flow cytometry, transfected PEAK cells, equimolar to 10 mcg/ml full-size antibody
human CEACAM8 (human) [2] = molecular target: human CEACAM8 (human) (UniProt P31997); test: as above
[3] = molecular target: human CEACAM5 (carcinoembryonic antigen, CEA), cell surface (human) (UniProt P06731); test: as above
human CEACAM6 (human) [4] = molecular target: human CEACAM6 (human) (UniProt P40199); test: as above
human CEACAM4 (human) [5] = molecular target: human CEACAM4 (human) (UniProt O75871); test: as above
human CEACAM3 (human) [6] = molecular target: human CEACAM3 (human) (UniProt P40198); test: as above
human CEACAM1 (human) [7] = molecular target: human CEACAM1 (human) (UniProt P13688); test: flow cytometry, MFI on transfected PEAK cells divided by MFI on WT PEAK cells
human CEACAM8 (human) [8] = molecular target: human CEACAM8 (human) (UniProt P31997); test: as above
[9] = molecular target: human CEACAM5 (carcinoembryonic antigen, CEA), cell surface (human) (UniProt P06731); test: as above
human CEACAM6 (human) [10] = molecular target: human CEACAM6 (human) (UniProt P40199); test: as above
human CEACAM4 (human) [11] = molecular target: human CEACAM4 (human) (UniProt O75871); test: as above
human CEACAM3 (human) [12] = molecular target: human CEACAM3 (human) (UniProt P40198); test: as above

human CEACAM5 (carcinoembryonic antigen, CEA), cell surface (human), sequence (P06731 35-685 limits assumed): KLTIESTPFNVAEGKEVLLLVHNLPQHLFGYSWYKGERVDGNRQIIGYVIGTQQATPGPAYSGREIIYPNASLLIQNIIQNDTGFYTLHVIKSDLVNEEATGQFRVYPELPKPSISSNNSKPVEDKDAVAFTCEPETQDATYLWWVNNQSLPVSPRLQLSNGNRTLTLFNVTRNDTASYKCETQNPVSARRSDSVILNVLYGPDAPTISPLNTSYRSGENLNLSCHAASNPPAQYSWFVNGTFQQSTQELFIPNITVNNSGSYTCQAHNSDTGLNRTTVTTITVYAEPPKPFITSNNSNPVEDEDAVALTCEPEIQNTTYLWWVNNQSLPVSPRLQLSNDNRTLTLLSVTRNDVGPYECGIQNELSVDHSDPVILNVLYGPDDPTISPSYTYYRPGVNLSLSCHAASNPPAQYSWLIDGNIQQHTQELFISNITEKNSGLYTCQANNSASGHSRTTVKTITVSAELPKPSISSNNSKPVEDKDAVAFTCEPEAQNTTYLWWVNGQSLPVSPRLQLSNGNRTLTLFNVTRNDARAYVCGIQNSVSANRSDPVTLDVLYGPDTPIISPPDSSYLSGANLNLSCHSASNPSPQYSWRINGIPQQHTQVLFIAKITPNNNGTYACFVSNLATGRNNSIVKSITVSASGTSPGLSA
human CEACAM6 (human), sequence (P40199 35-320): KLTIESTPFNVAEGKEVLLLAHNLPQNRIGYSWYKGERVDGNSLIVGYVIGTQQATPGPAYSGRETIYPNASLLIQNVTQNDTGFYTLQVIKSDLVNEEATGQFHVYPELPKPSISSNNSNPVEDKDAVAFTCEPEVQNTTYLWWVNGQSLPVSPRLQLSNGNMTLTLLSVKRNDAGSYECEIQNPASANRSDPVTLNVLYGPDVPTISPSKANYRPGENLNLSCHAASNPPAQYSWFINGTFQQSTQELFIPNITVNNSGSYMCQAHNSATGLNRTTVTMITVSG
human CEACAM4 (human), sequence (O75871 36-244): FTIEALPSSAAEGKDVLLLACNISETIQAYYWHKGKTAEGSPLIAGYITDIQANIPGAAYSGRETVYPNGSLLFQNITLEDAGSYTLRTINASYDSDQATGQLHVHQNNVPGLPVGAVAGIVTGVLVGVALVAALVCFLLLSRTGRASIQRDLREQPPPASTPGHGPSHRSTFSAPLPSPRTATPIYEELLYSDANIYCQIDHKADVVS
human CEACAM8 (human), sequence (P31997 35-320): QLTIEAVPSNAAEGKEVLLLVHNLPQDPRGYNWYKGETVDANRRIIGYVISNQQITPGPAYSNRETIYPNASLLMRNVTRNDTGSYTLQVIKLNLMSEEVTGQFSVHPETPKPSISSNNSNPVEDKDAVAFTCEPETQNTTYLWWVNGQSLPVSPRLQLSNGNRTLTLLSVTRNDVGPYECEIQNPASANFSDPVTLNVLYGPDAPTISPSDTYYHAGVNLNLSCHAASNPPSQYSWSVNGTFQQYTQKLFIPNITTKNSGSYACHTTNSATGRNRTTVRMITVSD
human CEACAM3 (human), sequence (P40198 35-252): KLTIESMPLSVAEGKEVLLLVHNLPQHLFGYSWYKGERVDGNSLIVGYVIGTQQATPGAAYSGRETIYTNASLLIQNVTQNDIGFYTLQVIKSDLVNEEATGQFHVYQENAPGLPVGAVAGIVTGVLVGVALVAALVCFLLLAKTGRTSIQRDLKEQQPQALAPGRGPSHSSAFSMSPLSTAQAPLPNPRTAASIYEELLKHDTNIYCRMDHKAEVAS
human CEACAM1 (human), sequence (P13688 35-526): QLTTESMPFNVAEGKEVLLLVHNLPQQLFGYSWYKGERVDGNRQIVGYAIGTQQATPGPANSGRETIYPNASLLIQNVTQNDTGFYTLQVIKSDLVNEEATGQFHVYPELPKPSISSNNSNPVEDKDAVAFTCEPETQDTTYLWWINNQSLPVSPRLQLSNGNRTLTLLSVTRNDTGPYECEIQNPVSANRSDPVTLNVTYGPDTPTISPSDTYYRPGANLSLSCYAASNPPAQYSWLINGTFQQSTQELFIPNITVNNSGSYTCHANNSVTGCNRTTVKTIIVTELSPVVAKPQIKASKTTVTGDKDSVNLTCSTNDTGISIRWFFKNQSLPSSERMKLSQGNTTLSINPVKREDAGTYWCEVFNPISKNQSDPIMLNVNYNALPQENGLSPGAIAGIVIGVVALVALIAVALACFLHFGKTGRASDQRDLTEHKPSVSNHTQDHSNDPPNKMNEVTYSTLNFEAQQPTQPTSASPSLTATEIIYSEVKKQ

Substance: MEDI-565 BiTE (bispecific antibody)
- MFI (human CEACAM1 (human) [1]): 1470 MFI
- MFI (human CEACAM8 (human) [2]): 24000 MFI
- MFI [3]: 18400 MFI
- MFI (human CEACAM6 (human) [4]): 1830 MFI
- MFI (human CEACAM4 (human) [5]): 1340 MFI
- MFI (human CEACAM3 (human) [6]): 943 MFI
- Factor to PEAK WT (human CEACAM1 (human) [7]): 1.2 fold
- Factor to PEAK WT (human CEACAM8 (human) [8]): 20.4 fold
- Factor to PEAK WT [9]: 15.7 fold
- Factor to PEAK WT (human CEACAM6 (human) [10]): 1.6 fold
- Factor to PEAK WT (human CEACAM4 (human) [11]): 1.1 fold
- Factor to PEAK WT (human CEACAM3 (human) [12]): 0.8 fold
